The record followed here is publication PMC9841405.

Residue numbers refer to the chain shown, from its start.

The target of one data set is T1, AtTCP10-DBD (UniProt O82277 1-87).
T1 sequence: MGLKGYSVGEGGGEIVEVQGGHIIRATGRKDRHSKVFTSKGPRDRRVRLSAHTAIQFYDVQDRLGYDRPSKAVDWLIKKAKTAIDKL
In words: ITC.

Data set [1] has as its target T2, AtTCP10-DBD DRH mutant (UniProt O82277 1-87, D31A;R32A;H33A).
T2 sequence: T1 sequence with D31A, R32A, H33A
In words: EMSA. In general terms: In EMSA bound probe runs differently from free probe, usually more slowly.

Data set [2] concerns the target T3, AtTCP15-DBD (UniProt Q9C9L2 51-113). The data set is described as follows: ITC.
For data set [3], the target named is T3, AtTCP15-DBD. The data set is described as follows: EMSA.
Data set [4] has as its target T4, AtTCP10-DBD DRH RR mutant (UniProt O82277 1-87, D31A;R32A;H33A;R46A;R48A).
T4 sequence: T1 sequence with D31A, R32A, H33A, R46A, R48A
The data set is described as follows: ITC.

Data set [5] has as its target T2, AtTCP10-DBD DRH mutant. In words: ITC.
The next data set concerns the target T5, AtTCP10-DBD RR mutant (UniProt O82277 1-87, R46A;R48A).
T5 sequence: T1 sequence with R46A, R48A
The data set is described as follows: ITC.

B1: two-site class II DNA (dsDNA)
DNA 1: ATGTGGTCCCGTGT
DNA 2: TACACGGGACCACA
Turning to B1, the Kd with AtTCP10-DBD came out at 351 nM. The binding result with AtTCP10-DBD DRH mutant [1] is “binds”.

B2: three-site class I DNA (dsDNA)
DNA 1: ATGTGGGTCCCACT
DNA 2: TAGTGGGACCCACA
With B2, in the data set with AtTCP15-DBD [2], the Kd worked out at 38.3 nM.

B3: one-site class I DNA (dsDNA)
DNA 1: ATAGAGGTCCGTGT
DNA 2: TACACGGACCTCTA
In the case of B3, the binding result in the data set with AtTCP15-DBD [3] is recorded as “binds”.

B4: one-site class II DNA (dsDNA)
DNA 1: ATAGAGTCCCGTGT
DNA 2: TACACGGGACTCTA
Turning to B4, in the data set with AtTCP10-DBD, binding was characterised by a dissociation constant (Kd) of 366 nM. The binding result with AtTCP10-DBD DRH mutant [1] is given as “binds”.

B5: two-site class I DNA (dsDNA)
DNA 1: ATGTGGGTCCGTGT
DNA 2: TACACGGACCCACA
In turn, B5 gave a Kd with AtTCP15-DBD [2] of 109 nM.

B6: three-site class II DNA (dsDNA)
DNA 1: ATGTGGTCCCCACT
DNA 2: TAGTGGGGACCACA
Consider B6, for which the Kd in the data set with AtTCP10-DBD worked out at 8.5 nM; in data set [4], 1620 nM; with AtTCP10-DBD DRH mutant [5] it was 353 nM; with AtTCP10-DBD RR mutant, 1130 nM.

As usually defined, the Kd is the concentration at which binding is half-saturated.
